B1: His-tagged Arl4A T51N [not stated] / GST-VPS36 (201–386) [not stated] (parent complex)
chain 1: MGNGLSDQTSILSNLPSFQSFHIVILGLDCAGKTTVLYRLQFNEFVNTVPNKGFNTEKIKVTLGNSKTVTFHFWDVGGQEKLRPLWKSYTRCTDGIVFVVDSVDVERMEEAKTELHKITRISENQGVPVLIVANKQDLRNSLSLSEIEKLLAMGELSSSTPWHLQPTCAIIGDGLKEGLEKLHDMIIKRRKMLRQQKKKR
chain 2: KIKDKQGDITEDETIRFKSYLLSMGIANPVTRETYGSGTQYHMQLAKQLAGILQVPLEERGGIMSLTEVYCLVNRARGMELLSPEDLVNACKMLEALKLPLRLRVFDSGVMVIELQSHKEEEMVASALETVSEKGSLTSEEFAKLVGMSVLLAKERLLLAEKMGHLCRDDSVEGLRFYPNLFMTQS
B2: untagged Arl4A T51N (pSG5) [not stated] / VPS36-WT-Myc [not stated] (parent complex)
chain 1: B1 chain 1
chain 2: MDRFVWTSGLLEINETLVIQQRGVRIYDGEEKIKFDAGTLLLSTHRLIWRDQKNHECCMAILLSQIVFIEEQAAGIGKSAKIVVHLHPAPPNKEPGPFQSSKNSYIKLSFKEHGQIEFYRRLSEEMTQRRWENMPVSQSLQTNRGPQPGRIRAVGIVGIERKLEEKRKETDKNISEAFEDLSKLMIKAKEMVELSKSIANKIKDKQGDITEDETIRFKSYLLSMGIANPVTRETYGSGTQYHMQLAKQLAGILQVPLEERGGIMSLTEVYCLVNRARGMELLSPEDLVNACKMLEALKLPLRLRVFDSGVMVIELQSHKEEEMVASALETVSEKGSLTSEEFAKLVGMSVLLAKERLLLAEKMGHLCRDDSVEGLRFYPNLFMTQS

Variants of: B1
Assay: GST pull-down with densitometric quantification; parent: 1; read off a plot

ratio to parent	Variant
~0.09	chain 2 L152A, chain 2 K154A, chain 2 E155A, chain 2 R156A
~0.22	chain 2 L137A, chain 2 T138A, chain 2 S139A, chain 2 E140A, chain 2 E141A
~0.31	chain 2 F142A, chain 2 K144A, chain 2 L145A, chain 2 V146A

Variants of: B2
Assay: co-immunoprecipitation (Myc-Trap) with densitometric quantification; HeLa cell lysates; parent: 1; read off a plot

ratio to parent	Variant
~0.54	chain 2 L352A, chain 2 K354A, chain 2 E355A, chain 2 R356A
